Test results reported in article PMC10544979.

What was measured:
[1] = molecular target: mouse TLR4 (mTLR4) on HEK-Blue-mTLR4 reporter cells (mouse) (UniProt Q9QUK6); conditions: for log (EC50) of NF-kB-driven SEAP secretion by HEK-Blue-mTLR4 reporter cells, 48 h, dose-response up to 2540 nM: scale: log
[2] = molecular target: human TLR4 (hTLR4) on HEK-Blue-hTLR4 reporter cells (human) (UniProt O00206)
Sequence of UniProt O00206 (O00206 24-839): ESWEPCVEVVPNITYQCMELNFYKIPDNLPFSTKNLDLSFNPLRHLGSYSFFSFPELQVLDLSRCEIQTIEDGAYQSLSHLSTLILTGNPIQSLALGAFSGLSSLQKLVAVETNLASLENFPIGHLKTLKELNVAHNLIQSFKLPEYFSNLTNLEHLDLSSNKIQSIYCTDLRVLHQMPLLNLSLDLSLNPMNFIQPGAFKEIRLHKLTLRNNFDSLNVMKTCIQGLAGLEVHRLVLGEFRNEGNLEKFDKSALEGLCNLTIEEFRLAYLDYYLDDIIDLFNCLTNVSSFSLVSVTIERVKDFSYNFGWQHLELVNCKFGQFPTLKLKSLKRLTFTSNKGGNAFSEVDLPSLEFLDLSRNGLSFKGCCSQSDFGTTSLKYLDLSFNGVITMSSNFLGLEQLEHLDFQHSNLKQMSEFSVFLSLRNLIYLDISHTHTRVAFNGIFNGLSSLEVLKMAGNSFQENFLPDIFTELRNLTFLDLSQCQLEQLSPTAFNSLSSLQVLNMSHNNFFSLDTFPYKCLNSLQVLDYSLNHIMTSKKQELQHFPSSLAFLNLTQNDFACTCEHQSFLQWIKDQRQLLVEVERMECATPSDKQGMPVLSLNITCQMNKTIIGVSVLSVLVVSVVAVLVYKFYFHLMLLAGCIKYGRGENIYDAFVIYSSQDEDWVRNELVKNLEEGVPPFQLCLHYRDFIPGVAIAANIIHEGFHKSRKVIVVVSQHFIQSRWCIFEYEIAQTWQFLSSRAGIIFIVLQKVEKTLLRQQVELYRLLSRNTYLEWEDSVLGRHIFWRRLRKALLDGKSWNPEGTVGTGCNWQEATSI

Sequence of UniProt Q9QUK6 (Q9QUK6 26-835): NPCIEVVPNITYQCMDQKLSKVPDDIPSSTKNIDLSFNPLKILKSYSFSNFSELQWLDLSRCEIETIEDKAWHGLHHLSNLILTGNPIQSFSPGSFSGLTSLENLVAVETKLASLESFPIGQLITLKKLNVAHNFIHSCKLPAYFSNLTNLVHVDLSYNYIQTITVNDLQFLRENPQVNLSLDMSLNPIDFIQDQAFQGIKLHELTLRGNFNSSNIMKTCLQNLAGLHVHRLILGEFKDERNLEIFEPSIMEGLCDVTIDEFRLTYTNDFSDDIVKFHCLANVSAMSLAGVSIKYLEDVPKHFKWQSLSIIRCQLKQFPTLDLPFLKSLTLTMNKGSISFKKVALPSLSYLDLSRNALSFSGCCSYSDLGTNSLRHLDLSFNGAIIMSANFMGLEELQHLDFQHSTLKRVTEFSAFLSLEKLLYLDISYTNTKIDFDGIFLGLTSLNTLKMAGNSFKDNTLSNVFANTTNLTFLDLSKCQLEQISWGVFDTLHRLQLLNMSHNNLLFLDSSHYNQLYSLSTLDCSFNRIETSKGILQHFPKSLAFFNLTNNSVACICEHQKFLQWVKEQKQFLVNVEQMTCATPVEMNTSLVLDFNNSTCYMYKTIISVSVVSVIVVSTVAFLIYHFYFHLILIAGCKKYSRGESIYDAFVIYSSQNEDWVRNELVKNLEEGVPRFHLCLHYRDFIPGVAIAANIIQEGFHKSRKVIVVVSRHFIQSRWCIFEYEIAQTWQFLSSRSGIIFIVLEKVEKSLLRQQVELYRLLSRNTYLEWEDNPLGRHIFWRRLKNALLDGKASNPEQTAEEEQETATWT

Substance	maximum activation of HEK-Blue-mTLR4 reporter cells (SEAP), dose-response up to 2540 nM, 48 h, LPS plateau = 100% [1]	log (EC50) of NF-kB-driven SEAP secretion by HEK-Blue-mTLR4 reporter cells, 48 h, dose-response up to 2540 nM [1]	activation of HEK-Blue-hTLR4 reporter cells (SEAP), dose-response up to 2,540 nM, 48 h, LPS = 100% [2]
Fissurella latimarginata hemocyanin (FLH) (natural protein)	80 % of LPS	0.1	25 % of LPS
recombinant surface immunogenic protein (rSIP) from Streptococcus agalactiae (natural protein)	80 % of LPS	-1	90 % of LPS
